The source of these data is US20250154284A1 (INMAGENE PTE, published 2025).

B1: anti-MASP-2 antibody clone 3E10 (chimeric 3E10) (antibody, V domains shown)
VH: EVQLQQSGPGLVQSSQSLSITCTVSGFSLTTYGVHWVRLSPGKGLEWLGVIWKGGSTDYNAAFMSRLSITKDNSKSEVFFQMNSLQGDDSAIYYCVKTLELRRRDYYAMDYWGQGTSVTVSS
VL: DIVMTQTTSSLAVSAGEKVTMSCKSSQNILYSSNQKNLLAWYQQKPGQSPKLLIYWASTRESGVPNRFTGSGSGTDFSLTINSVQPEDLAVYYCHQYFSSYTFGGGTKLEMK
notes: Mouse variable regions; tested as a 'chimeric' antibody; also called 3E10-mus
B2: 3E10-hu-9 (antibody, V domains shown)
VH: QVQLVESGGGVVQPGRSLRLSCAASGFSLTTYGVHWVRQAPGKGLEWLGVIWKGGSTDYNAAFMSRLTISKDNSKSTVYIQMNSLRAEDTAVYYCAKTLELRRRDYYAMDYWGQGTLVTVSS
VL: DIVMTQSPDSLAVSLGERATINCKSSQNILYSSNQKNLLAWYQQKPGQPPKLLIYWASTRESGVPDRFSGSGSGTDFTLTISSLQAEDVAVYYCHQYFSSYTFGQGTKLEIK
notes: also called humanized 3E10 clone with 3E10-hu-VH-9
B3: 3E10-hu-7-2 (antibody, V domains shown)
VH: QVQLVESGGGVVQPGRSLRLSCAASGFTLSTYGVHWVRQAPGKGLEWLGVIWKGGSTDYNAAFMSRLTISKDNSKNTVYIQMNSLRAEDTAVYYCVKTLELRRRDYYAMDYWGQGTLVTVSS
VL: DIVMTQSPDSLAVSLGERATINCKSSQNILYSSNQKNLLAWYQQKPGQPPKLLIYWASTRESGVPDRFSGSGSGTDFTLTISSLQAEDVAVYYCHQYFSSYTFGQGTKLEIK
notes: also called humanized 3E10 clone with 3E10-hu-VH-7-2
B4: 3E10-hu-10 (antibody, V domains shown)
VH: QVQLVESGGGVVQPGRSLRLSCAASGFSLTTYGVHWVRQAPGKGLEWLGVIWKGGSTDYNAAFMSRLTISKDNSKSTVYIQMNSLRAEDTAVYYCVKTLELRRRDYYAMDYWGQGTLVTVSS
VL: DIVMTQSPDSLAVSLGERATINCKSSQNILYSSNQKNLLAWYQQKPGQPPKLLIYWASTRESGVPDRFSGSGSGTDFTLTISSLQAEDVAVYYCHQYFSSYTFGQGTKLEIK
notes: also called humanized 3E10 clone with 3E10-hu-VH-10
B5: 3E10-hu-7-1 (antibody, V domains shown)
VH: QVQLVESGGGVVQPGRSLRLSCAASGFTLSTYGVHWVRQAPGKGLEWLGVIWKGGSTDYNAAFMSRLTISKDNSKSTVYIQMNSLRAEDTAVYYCAKTLELRRRDYYAMDYWGQGTLVTVSS
VL: DIVMTQSPDSLAVSLGERATINCKSSQNILYSSNQKNLLAWYQQKPGQPPKLLIYWASTRESGVPDRFSGSGSGTDFTLTISSLQAEDVAVYYCHQYFSSYTFGQGTKLEIK
notes: also called humanized 3E10 clone with 3E10-hu-VH-7-1
B6: 3E10-hu-0 (antibody, V domains shown)
VH: QVQLVESGGGVVQPGRSLRLSCAASGFTFSTYGVHWVRQAPGKGLEWVAVIWKGGSTDYNAAFMSRFTISRDNSKNTIYIQMNSLRAEDTAVYYCAKTLELRRRDYYAMDYWGQGTLVTVSS
VL: DIVMTQSPDSLAVSLGERATINCKSSQNILYSSNQKNLLAWYQQKPGQPPKLLIYWASTRESGVPDRFSGSGSGTDFTLTISSLQAEDVAVYYCHQYFSSYTFGQGTKLEIK
notes: also called humanized 3E10 clone with 3E10-hu-VH-0
B7: 3E10-hu-6 (antibody, V domains shown)
VH: QVQLVESGGGVVQPGRSLRLSCAASGFTLSTYGVHWVRQAPGKGLEWLGVIWKGGSTDYNAAFMSRLTISKDNSKNTVYIQMNSLRAEDTAVYYCAKTLELRRRDYYAMDYWGQGTLVTVSS
VL: DIVMTQSPDSLAVSLGERATINCKSSQNILYSSNQKNLLAWYQQKPGQPPKLLIYWASTRESGVPDRFSGSGSGTDFTLTISSLQAEDVAVYYCHQYFSSYTFGQGTKLEIK
notes: also called humanized 3E10 clone with 3E10-hu-VH-6
B8: 3E10-hu-8 (antibody, V domains shown)
VH: QVQLVESGGGVVQPGRSLRLSCAASGFSLTTYGVHWVRQAPGKGLEWLGVIWKGGSTDYNAAFMSRLTISKDNSKNTVYIQMNSLRAEDTAVYYCAKTLELRRRDYYAMDYWGQGTLVTVSS
VL: DIVMTQSPDSLAVSLGERATINCKSSQNILYSSNQKNLLAWYQQKPGQPPKLLIYWASTRESGVPDRFSGSGSGTDFTLTISSLQAEDVAVYYCHQYFSSYTFGQGTKLEIK
notes: also called humanized 3E10 clone with 3E10-hu-VH-8
B9: 3E10-hu-12 (antibody, V domains shown)
VH: QVQLVESGGGVVQPGRSLRISCAVSGFSLTTYGVHWVRQAPGKGLEWLGVIWKGGSTDYNAAFMSRLTISKDNSKSTVYIQMNSLRAEDTAVYYCVKTLELRRRDYYAMDYWGQGTLVTVSS
VL: DIVMTQSPDSLAVSLGERATINCKSSQNILYSSNQKNLLAWYQQKPGQPPKLLIYWASTRESGVPDRFSGSGSGTDFTLTISSLQAEDVAVYYCHQYFSSYTFGQGTKLEIK
notes: also called humanized 3E10 clone with 3E10-hu-VH-12
B10: 3E10-hu-11 (antibody, V domains shown)
VH: QVQLVESGGGVVQPGRSLRISCAASGFSLTTYGVHWVRQAPGKGLEWLGVIWKGGSTDYNAAFMSRLTISKDNSKSTVYIQMNSLRAEDTAVYYCVKTLELRRRDYYAMDYWGQGTLVTVSS
VL: DIVMTQSPDSLAVSLGERATINCKSSQNILYSSNQKNLLAWYQQKPGQPPKLLIYWASTRESGVPDRFSGSGSGTDFTLTISSLQAEDVAVYYCHQYFSSYTFGQGTKLEIK
notes: also called humanized 3E10 clone with 3E10-hu-VH-11

T1 sequence (O00187 16-686): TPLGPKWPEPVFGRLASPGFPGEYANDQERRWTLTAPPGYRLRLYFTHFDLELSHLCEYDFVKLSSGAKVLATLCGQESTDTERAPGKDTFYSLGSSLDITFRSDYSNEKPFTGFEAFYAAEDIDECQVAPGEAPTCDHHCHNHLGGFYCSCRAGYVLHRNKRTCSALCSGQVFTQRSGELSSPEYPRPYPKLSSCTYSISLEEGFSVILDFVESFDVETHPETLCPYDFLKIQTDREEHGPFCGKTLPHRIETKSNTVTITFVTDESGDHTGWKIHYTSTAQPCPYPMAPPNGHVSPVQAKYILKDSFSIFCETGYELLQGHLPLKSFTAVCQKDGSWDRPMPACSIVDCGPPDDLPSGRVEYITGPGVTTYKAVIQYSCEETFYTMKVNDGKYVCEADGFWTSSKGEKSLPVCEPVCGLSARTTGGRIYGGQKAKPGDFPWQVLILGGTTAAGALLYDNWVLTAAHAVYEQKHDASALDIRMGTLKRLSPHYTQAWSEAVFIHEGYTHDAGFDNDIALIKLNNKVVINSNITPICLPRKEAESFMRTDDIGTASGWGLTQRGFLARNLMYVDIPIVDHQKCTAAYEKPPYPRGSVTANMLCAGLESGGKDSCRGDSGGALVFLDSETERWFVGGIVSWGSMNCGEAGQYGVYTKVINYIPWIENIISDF

The first assay addresses T1, recombinant human MASP-2 protein (human, UniProt O00187 16-686).
T1 construct: Used as analyte in BLI and SPR; also called hMASP-2; hMASP2-FL
Briefly: BLI (Gator), antibody on Protein A biosensor, human MASP-2, 30 C. As for the experimental part:
The assay was performed at 30° C. and the kinetics buffer was 1×PBS (136 mM NaCl, 8 mM […], 2 mM KH₂PO₄, 2.6 mM KCl) with 0.1% BSA and 0.005% Tween-20, pH7.4. Diluted antibodies and human MASP-2 were added to the corresponding well. After loading human MASP-2, biosensor detected the association and dissociation of antibodies. The regeneration of biosensors was in buffer 10 mM glycine, pH2.0.
By Kd is commonly meant the concentration at which binding is half-saturated. The koff is the first-order rate constant of dissociation. Usually kon stands for a measure of how fast the partners come together. Consider B1, for which the equilibrium dissociation constant (Kd) amounted to 15.4 nM, the koff was 0.00113 s⁻¹ and the kon was determined as 73500 M⁻¹ s⁻¹.

As for B2, the Kd was determined as 12.8 nM, the koff was determined as 0.000952 s⁻¹ and the kon was 74200 M⁻¹ s⁻¹.

Consider B3, for which the Kd was 14.7 nM, the koff amounted to 0.00107 s⁻¹ and the kon amounted to 72900 M⁻¹ s⁻¹.

With B4, the Kd was found to be 15.3 nM, the koff is 0.00111 s⁻¹ and the kon turned out to be 72800 M⁻¹ s⁻¹.

In the case of B5, the Kd came out at 17.3 nM, the koff amounted to 0.00114 s⁻¹ and the kon turned out to be 65700 M⁻¹ s⁻¹.

On to B6, for which the Kd was found to be 26.3 nM, the koff is 0.00102 s⁻¹ and the kon was 38700 M⁻¹ s⁻¹.

With B7, the Kd worked out at 15.2 nM, the koff is 0.000985 s⁻¹ and the kon is 64600 M⁻¹ s⁻¹.

For the molecule B8, the Kd worked out at 15.6 nM, the koff came to 0.00107 s⁻¹ and the kon was 68600 M⁻¹ s⁻¹.

As for B9, the Kd was 14.3 nM, the koff was determined as 0.00103 s⁻¹ and the kon was 72300 M⁻¹ s⁻¹.

With B10, the Kd was found to be 13.7 nM, the off-rate (koff) was 0.00107 s⁻¹ and the kon is 77700 M⁻¹ s⁻¹.

The next assay has as its target T1, recombinant human MASP-2 protein. Description: cell-based or functional assay.
For the molecule B1, the “IC50 of C3 activation (mannan-coated plate, human serum)” value was 4.14 ng/mL; the “IC50 of C4 activation (mannan-coated plate, human serum)” value is 3.6 ng/mL; the “IC50 of C4 activation in 5% human serum” value was determined as 8.26 ng/mL; the “IC50 of C4 activation in 10% human serum (methods say 25%)” value turned out to be 30.8 ng/mL. Also, the “IC50 of C4 activation in 50% human serum” value amounted to 67.3 ng/mL and the “IC50 of MAC activation (mannan-coated plate, human serum)” value was determined as 3.27 ng/mL.

The next assay has the same target. Briefly: BLI (Gator), antibody on Protein A biosensor, recombinant MASP-2 25-200 nM, 30 C. The protocol:
Recombinant MASP-2 protein was diluted with kinetics buffer to get a concentration gradient: 200 nM, 100 nM, 50 nM, 25 nM, and 0 nM (reference control). Antibodies were immobilized onto Protein A biosensor after balance. A baseline was detected for 60 seconds. Then, antibody-antigen association was detected for 120 seconds to obtain data for Kₒₙ, followed by detection of dissociation in kinetic buffer for 120 seconds to obtain data for Koff. The regeneration of biosensors was done in buffer 10 mM glycine, pH2.0. All the kinetics data were collected at 30° C. Data were acquired with Gator Bioanalysis System.
For the molecule B1, the Kd was below 0.1 nM, the koff is below 1e-06 s⁻¹ and the kon amounted to 29600 M⁻¹ s⁻¹.
